Measurements reported in patent US20130040825A1, “DNA DAMAGE DETECTION ASSAY AND METHOD” (priority 2011, published 2013).

Tests used:
CAN1 gene = assay: q-PADDA quantification of induced DNA damage after in vitro exposure of cloned CAN1 plasmid DNA; format: biochemical, Saccharomyces cerevisiae
Protocol: We quantified induced DNA damage after in vitro and/or in vivo exposure to a dose escalation of H2O2 (1 μM to 500 mM) and methyl methanosulfonate (MMS) (1 mM to 1 M). For in vitro assays, a 1,750 bp fragment of the CAN1 gene was amplified by PCR and cloned into the pJET1.2 vector (Fermentas, Glenn Burie, Md.) using standard protocols. Plasmid DNA was sequence verified, extracted using CsCl and dialyzed overnight against 500 ml H2O. Five μg of dialyzed DNA were treated with H2O2 in the presence of 0.3 M sucrose and 100 μM Fe^2+ as described (84), or with MMS in water (85). Treated DNA was recovered by ethanol precipitation. For in vivo induced DNA damage assays, BER− cells in logarithmic phase were treated with varying doses and times of MMS as described (85). For a control, cells were treated with water in place of MMS. Genomic DNA was extracted as described above, except MMS concentration was kept constant during spheroplasting. […] Control samples were processed as treated samples except water was added in place of the specific genotoxic. Experiments were repeated at least in triplicate. For high-throughput damage quantification, the highly purified streptavidin bound extended products were re-suspended in 50 μl TE and amplified by Real-Time PCR using one of 2 Real-Time PCR detection Systems: IQ5 Real-Time PCR detection System or Qx100 digital droplet PCR system.
For the IQ5 Real-Time PCR detection System using Sybr Green, reactions were carried out in an in a 25 μl final volume with PCR buffer (40 mM Tricine-KOH (pH 8.0), 16 mM KCl, 3.5 mM MgCl2, 3.75 μg/ml bovine serum albumin), 1:75,000 dilution SYBR Green I (Invitrogen), 0.8 mM total dNTPs (Fermentas), 0.7 units JUMPSTART Taq polymerase (Sigma), 0.32 μM each oligo, and 1/32 of total extended product pool. Amplification was monitored and analyzed by measuring the intercalation of the fluorescent dye to double-stranded DNA according to the manufacturer's instructions. To quantify damage on each strand of the yeast CAN1 gene, two fragments of different lengths located in the same genomic region were amplified. The long fragment (513 to 628 bases) was used to assess damage quantification. The short fragment (67 to 68 bases), representing undamaged DNA, was used as an internal normalization control. The PCR conditions for the different fragments were optimized to achieve similar amplification efficiencies required to compare different amplicons. All products were amplified under the following conditions: 95° C., 3 min; 40 cycles (95° C., 15 s; 63° C., 40 s). Each sample was assayed in at least three independent experiments, each with at least four wells per sample, from three separate yeast cultures and DNA extractions. […]

BER− cells = assay: q-PADDA quantification of in vivo induced DNA damage in BER− cells in logarithmic phase; format: cell-based, Saccharomyces cerevisiae; conditions: BER− yeast cells (FIG. 4A, 4B)
Protocol: We quantified induced DNA damage after in vitro and/or in vivo exposure to a dose escalation of H2O2 (1 μM to 500 mM) and methyl methanosulfonate (MMS) (1 mM to 1 M). For in vitro assays, a 1,750 bp fragment of the CAN1 gene was amplified by PCR and cloned into the pJET1.2 vector (Fermentas, Glenn Burie, Md.) using standard protocols. Plasmid DNA was sequence verified, extracted using CsCl and dialyzed overnight against 500 ml H2O. Five μg of dialyzed DNA were treated with H2O2 in the presence of 0.3 M sucrose and 100 μM Fe^2+ as described (84), or with MMS in water (85). Treated DNA was recovered by ethanol precipitation. […] For high-throughput damage quantification, the highly purified streptavidin bound extended products were re-suspended in 50 μl TE and amplified by Real-Time PCR using one of 2 Real-Time PCR detection Systems: IQ5 Real-Time PCR detection System or Qx100 digital droplet PCR system.
For the IQ5 Real-Time PCR detection System using Sybr Green, reactions were carried out in an in a 25 μl final volume with PCR buffer (40 mM Tricine-KOH (pH 8.0), 16 mM KCl, 3.5 mM MgCl2, 3.75 μg/ml bovine serum albumin), 1:75,000 dilution SYBR Green I (Invitrogen), 0.8 mM total dNTPs (Fermentas), 0.7 units JUMPSTART Taq polymerase (Sigma), 0.32 μM each oligo, and 1/32 of total extended product pool. […] The long fragment (513 to 628 bases) was used to assess damage quantification. […]

naked DNA = assay: PADDA detection of cytosine deamination after exposure of naked DNA to serial dilutions of sodium bisulfite; format: biochemical; conditions: serial dilutions (FIG. 6)
Vent exo− = molecular target: T1, Vent exo− (Thermococcus litoralis, UniProt P30317, D141A/DEL1082-1471/DEL495-1032/E143A); assay: f-PADDA primer extension on synthetic oligonucleotides containing a single engineered lesion; format: biochemical; conditions: for lesion detected in primer extensions (sensitivity of PADDA): engineered lesion in 64 base template, at least 20 independent events per lesion; for Lesion Bypass with Misincorporation (LBM): misincorporation without replicative arrest; for Stops with Misincorporation (SMs): replicative arrest with misincorporation opposite the damaged base; for Stops: replicative arrest without misincorporation; for lesion acting as Vent exo− blocking lesion: share of all primer extensions
T1 construct: Vent exo−, a truncated form of a native DNA polymerase (Vent, NEB); purchased NEB
T1 sequence (P30317 other isoform, or with tags, fused parts or gaps D141A/E143A/DEL495-1032/DEL1082-1471): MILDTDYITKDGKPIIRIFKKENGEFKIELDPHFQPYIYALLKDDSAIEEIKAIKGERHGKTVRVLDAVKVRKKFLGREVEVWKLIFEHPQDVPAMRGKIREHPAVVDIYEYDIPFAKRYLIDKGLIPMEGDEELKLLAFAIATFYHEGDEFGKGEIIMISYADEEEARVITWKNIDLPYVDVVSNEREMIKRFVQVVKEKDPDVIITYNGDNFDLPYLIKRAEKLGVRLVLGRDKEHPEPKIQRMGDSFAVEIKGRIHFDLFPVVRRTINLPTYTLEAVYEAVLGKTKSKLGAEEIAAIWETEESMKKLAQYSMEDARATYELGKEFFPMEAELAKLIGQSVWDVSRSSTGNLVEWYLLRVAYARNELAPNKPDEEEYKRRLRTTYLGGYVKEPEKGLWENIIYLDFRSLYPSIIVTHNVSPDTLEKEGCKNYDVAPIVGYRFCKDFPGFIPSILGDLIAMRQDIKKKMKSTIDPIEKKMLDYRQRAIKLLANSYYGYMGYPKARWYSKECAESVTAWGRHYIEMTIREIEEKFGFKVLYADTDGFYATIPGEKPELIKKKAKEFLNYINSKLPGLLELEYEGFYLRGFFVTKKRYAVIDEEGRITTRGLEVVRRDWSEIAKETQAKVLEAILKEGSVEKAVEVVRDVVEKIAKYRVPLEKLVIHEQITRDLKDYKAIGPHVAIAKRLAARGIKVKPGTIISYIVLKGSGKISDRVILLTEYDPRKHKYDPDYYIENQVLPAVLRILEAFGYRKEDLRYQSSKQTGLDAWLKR
Protocol: A single non-cycled primer-extension reaction in the region of interest was performed to screen for DNA damage. It will be understood that the presently disclosed and claimed inventive concepts are not limited to these oligonucleotides. For damage detection in synthetic DNA, we prepared a 22.8 μl primer extension reaction containing 1× Thermopol buffer (NEB, Ipswich, Mass.), 0.2 mM each dNTP (Fermentas, Glen Burie, Md.), 20 pmol of a 5-biotin-tagged primer, and 20 pmol of a 64 base template containing either a synthetic abasic or 8-OxoG lesion, along with a control (undamaged oligo). To generate a pool of biotin-tagged extended products (FIG. 1A), the mix was incubated at 94° C. for 3 min, held at 85° C. to add 0.08 U of Vent exo− (NEB), and then incubated at 58° C. for 2 min (annealing), and 75° C. for 2 min (extension). For damage detection in genomic DNA, we used 500 ng of S. cerevisiae genomic DNA, 0.8 U of Vent exo−, and 2 pmol of a 5-biotin-tagged gene specific primer. A sample containing all reagents except Vent exo− was used as a negative control for all experiments. The non-cycled primer-extension contrasts with the multiple-cycle primer-extension reaction of previous assays, and generates a pool of highly specific biotin-tagged extended products (EPs), each of them derived from a single DNA molecule and strand (FIG. 1A). The use of a 5-biotin-tagged sequence specific primer allows for subsequent steps aimed at reducing the background of the technique. Vent exo−, a truncated form of a native DNA polymerase (Vent, NEB), was chosen for this assay instead of the currently used Sequenase (13) or Taq DNA polymerase (14), because of its reported high sensitivity to detect DNA damage (21) and primer-extension efficiency (22-24). To optimize primer-extension performance, Vent exo− units were adjusted to the complexity of the DNA being screened (22).
For the purpose of mapping strand-specific nucleotide damage (f-PADDA), the 3′-end of the highly purified extended products was attached to the 5′-end of a chemically modified adapter-primer using Thermophage single-stranded DNA ligase (Prokaria, Reykjavik, Iceland) [Currently Circligase I from Epicentre, Madison, Wis.]. Thermophage was chosen for this reaction because its efficiency for single-strand ligation is higher than that of T4 RNA ligase (25) used in some PCR-based assays. […] Purified extended-products were first washed with 20 μl of 1× Thermophage ssDNA ligase buffer and then resuspended in 3.7 μl of 1× Thermophage ssDNA ligase buffer. The ligation was performed as recommended by Prokaria except 1.5 μM adapter and 10 U ssDNA ligase in a final 10 μl volume were used under the following conditions: 55° C. for 1 h, 65° C. for 15 min, and 70° C. for 15 min. Then, samples were spun briefly and the supernatant removed as before in the presence of a magnet. The adapter-ligated extended-products were washed with 1 ml of 2× B&W buffer, and then incubated with 1 ml of 0.5 M NaOH for 5 min to completely remove free adapters and non-specifically bound DNA. Finally, the supernatant was discarded and the bound products were washed with 200 μl of 2× B&W buffer. The adapter-linked extended-products pool was then washed with 20 μl of 1× Phusion HF PCR buffer and amplified for 35-cycles using Phusion Hot-Start DNA Polymerase (Finnzymes), an oligonucleotide complementary to the adapter-primer and a nested gene-specific primer according to the manufacturer's instructions. Phusion Hot-Start DNA Polymerase has the highest available accuracy (error rate=4.4×10^−7) and generates blunt-end products. After PCR amplification, the supernatant was collected under a magnetic field for use in cloning (CLONE JET PCR cloning kit, Fermentas) and transformation following standard procedures. This cloning strategy yields 99% of clones positive for a cloned insert. […]

Molecule | lesion detected in primer extensions (sensitivity of PADDA) (Vent exo−) | Stops with Misincorporation (SMs) (Vent exo−) | Stops (Vent exo−) | lesion acting as Vent exo− blocking lesion (Vent exo−) | also measured
OO [H2O2, Hydrogen peroxide] |  |  |  |  | total CAN1 DNA damage compared to the control (CAN1 gene; each dose escalation from 1 μM to 500 mM): significant increase in total CAN1 DNA damage; lowest dose giving a significant increase in damage, NTS (CAN1 gene; non-transcribed strand of CAN1, p<0.005): 1 µM; lowest dose giving a significant increase in damage, TS (CAN1 gene; transcribed strand of CAN1, p<0.005): 10 µM
COS(C)(=O)=O [MMS, methyl methanosulfonate] |  |  |  |  | in vitro DNA damage induced by dose escalation (CAN1 gene; dose escalation (FIG. 5)): increase in in vitro DNA damage; in vivo DNA damage induced by dose escalation or by increase in exposure time (BER− cells): increase in in vivo DNA damage
O=S([O-])O.[Na+] [sodium bisulfite] |  |  |  |  | DNA change induced in naked DNA (naked DNA): deamination of unmethylated cytosines to uracil
8-OxoG lesion: synthetic template oligonucleotide containing a single 7,8-dihydro-8-oxo-2′-deoxyguanosine (8-oxo-dG) (nucleic acid, 8-oxo-dG lesion, chemistry not fully specified) DNA: CCACTCACCNTGCACATAACAGACTTGGCTGTCCCAGACTGCAGGAAGCCCAGGTGGAAGCCAT | 85% | 15% | 8% | 23% | Bypass by Vent exo− without misincorporation (Vent exo−): 15%; Lesion Bypass with Misincorporation (LBM) (Vent exo−): 62%
8-oxo-dA lesion: synthetic template oligonucleotide containing a single 7,8-dihydro-8-oxo-2′-deoxyadenosine (8-oxo-dA) (nucleic acid, 8-oxo-dA lesion, chemistry not fully specified) DNA: CCACTCTCCATGCACATAACAGACTTGGCTGTGCNCGGTGCTCAGGAAGCCCAGGTGGAAGCCAT | 100% | 10% | 90% | 100% | 
Abasic sites: 64 base synthetic template oligonucleotide with a single abasic site (dSpacer tetrahydrofuran analog) (nucleic acid, abasic tetrahydrofuran site, further chemistry not given here) DNA: CCACTCTCCATGCACATAACAGACTTGGCTCACCTGCACTCAGGAAGCCCAGGTGGAAGCCAT | 100% | 50% | 45% | 95% | Lesion Bypass with Misincorporation (LBM) (Vent exo−): 5%
thymine glycol lesion: synthetic template oligonucleotide containing a single 5R,6S-dihydroxy-5,6-dihydrothymine (thymine glycol) (nucleic acid, thymine glycol lesion, further chemistry not given here) DNA: CCACTCACCGGCACATAACAGACTTGGCTGTCCCAGACTGCAGGAAGCCCAGGTGGAAGCCAT | 67% |  |  |  | 
